Assays:
B6D2F1 mice = test: Pharmacodynamics in mice after intraperitoneal administration, CBC test; format: in vivo; conditions: for RBC Increase (%) / Reticulocyte (×10^9/L) Increase (%): 7d vs 0d
Experimental: Pharmacodynamics were measured by a method of intraperitoneally administrating the PEG-EPO conjugates to B6D2F1 mice (female, 7 weeks old, body weight of 20.02±0.88 g). Specifically, 1.25, 2.5, 5, or 20 µg/kg of EPO, PEG-EPO-TS, or PEG-EPO-Mircera drugs were administered, after 7 days, 200 to 300 µl of the blood was collected from the facial vein by using a lancet into a micro EDTA tube (MiniCollect, Greiner Bio One International GmbH), the shaker was used to sufficiently mix the EDTA to prevent coagulation, and then, the CBC test was performed by using the ADVIA 2120i (Siemens AG) equipment within one hour. The results are shown in Table 10 below with the comparison of CBC results before drug administration.

[1] = Pharmacokinetics in rat after intravenous administration, erythropoietin in blood by ELISA, non-compartmental analysis; format: in vivo; conditions: SD rats
Experimental: Pharmacokinetics were measured by a method of intravenously administrating PEG-EPO conjugates to SD rats (male, 7 weeks old, body weight of 243.53±14.33 g). Specifically, after the administration of 3 µg/kg of EPO, PEG-EPO-TS, or PEG-EPO-Mircera, after 0, 0.5, 1, 2, 4, 8, 24 (1 d), 48 (2 d), 96 (4 d), and 168 ([…]) hours, blood was collected from the rats with an SST tube, centrifuged at 6,000 rpm for 10 minutes at 4°C, and stored at -80°C until the concentration measurement. The concentration of erythropoietin in the blood was measured by ELISA.
The pharmacokinetic analysis of the measured concentration results was performed by non-compartmental analysis (NCA), and the analysis was performed with the program of Phoenix WinNonlin 7.0 (Certara USA Inc., Princeton, NJ, USA). Individual NCA parameters were calculated.

[2] = i.p. 20 µg/kg, 0d (before drug administration)

PEG-EPO-Mircera: commercially available pegylated EPO (Mircera, Roche Korea Co., Ltd.), comparative group [reference compound]
Reticulocyte (×10^9/L) 0d (B6D2F1 mice; i.p. 1.25 µg/kg, 0d (before drug administration)): 228. 40 ×10^9/L | Reticulocyte (%) 7d (B6D2F1 mice; i.p. 1.25 µg/kg): 4.78% | RBC Increase (%) (B6D2F1 mice; i.p. 1.25 µg/kg): 15.03% | Reticulocyte (×10^9/L) Increase (%) (B6D2F1 mice; i.p. 1.25 µg/kg): 98.51% | Reticulocyte (×10^9/L) 0d (B6D2F1 mice; i.p. 2.5 µg/kg, 0d (before drug administration)): 143. 50 ×10^9/L | RBC(×10^6/µl) 7d (B6D2F1 mice; i.p. 2.5 µg/kg): 12. 16 ×10^6/µl | Reticulocyte (%) 7d (B6D2F1 mice; i.p. 2.5 µg/kg): 4.05% | RBC Increase (%) (B6D2F1 mice; i.p. 2.5 µg/kg): 37.25% | Reticulocyte (×10^9/L) Increase (%) (B6D2F1 mice; i.p. 2.5 µg/kg): 242.79% | Reticulocyte (×10^9/L) 0d (B6D2F1 mice; i.p. 5 µg/kg, 0d (before drug administration)): 134. 10 ×10^9/L | RBC(×10^6/µl) 7d (B6D2F1 mice; i.p. 5 µg/kg): 12. 01 ×10^6/µl | Reticulocyte (×10^9/L) 7d (B6D2F1 mice; i.p. 5 µg/kg): 1548. 00 ×10^9/L | RBC Increase (%) (B6D2F1 mice; i.p. 5 µg/kg): 31.26% | RBC(×10^6/µl) 0d (B6D2F1 mice; [2]): 10. 43 ×10^6/µl | Reticulocyte (×10^9/L) 0d (B6D2F1 mice; [2]): 194. 70 ×10^9/L | RBC(×10^6/µl) 7d (B6D2F1 mice; i.p. 20 µg/kg): 13. 55 ×10^6/µl | Reticulocyte (×10^9/L) 7d (B6D2F1 mice; i.p. 20 µg/kg): 2347. 00 ×10^9/L | RBC Increase (%) (B6D2F1 mice; i.p. 20 µg/kg): 29.91% | concentration of erythropoietin in the blood 0 h ([1]; IV 3 µg/kg, 0 h): 0 | concentration of erythropoietin in the blood 0.5 h ([1]; IV 3 µg/kg, 0.5 h): 8.7 | concentration of erythropoietin in the blood 1h ([1]; IV 3 µg/kg, 1 h): 7.6 | concentration of erythropoietin in the blood 2h ([1]; IV 3 µg/kg, 2 h): 6.3 | concentration of erythropoietin in the blood 4h ([1]; IV 3 µg/kg, 4 h): 6.8 | concentration of erythropoietin in the blood 8h ([1]; IV 3 µg/kg, 8 h): 4.9 | concentration of erythropoietin in the blood 24h ([1]; IV 3 µg/kg, 24 h): 3.6 | concentration of erythropoietin in the blood 48h ([1]; IV 3 µg/kg, 48 h): 2.1 | concentration of erythropoietin in the blood 96h ([1]; IV 3 µg/kg, 96 h): 0.7 | concentration of erythropoietin in the blood 168h ([1]; IV 3 µg/kg, 168 h): 0.1 | AUCinf ([1]; IV 3 µg/kg, NCA, administration to infinity): 288.60 ng·h/mL | AUClast ([1]; IV 3 µg/kg, NCA, administration to last measured concentration): 284.59 ng·h/mL | C1 ([1]; IV 3 µg/kg, NCA, clearance): 1.8707 mL/min/kg | T1/2 ([1]; IV 3 µg/kg, NCA, half-life): 27.83 h | C0 ([1]; IV 3 µg/kg, NCA, initial concentration): 9.96 ng/mL | Cmax ([1]; IV 3 µg/kg, NCA, maximal concentration): 8.7 ng/mL | MRTlast ([1]; IV 3 µg/kg, NCA, mean residence time to last measured concentration): 36.87 h | AUC%Extrap (%) ([1]; IV 3 µg/kg, NCA, percentage of extrapolated area): 1.39% | Tmax ([1]; IV 3 µg/kg, NCA, time at maximal concentration): 0.5 h | VZ ([1]; IV 3 µg/kg, NCA, volume of distribution): 4.50667 L/kg | Vss ([1]; IV 3 µg/kg, NCA, volume of distribution at steady state): 4.40632 L/kg | half-life ([1]; IV administration): 27.8 h
